B1: mouse non-amyloidogenic IAPP(20-29) core (ΔmIAPP) (peptide)
peptide: SNNLGPVLPP
notes: Non-amyloid negative control peptide; also called mΔIAPP; MΔIAPP
B2: plasminogen (enzyme, UniProt P00747 20-810, looked up)
chain: EPLDDYVNTQGASLFSVTKKQLGAGSIEECAAKCEEDEEFTCRAFQYHSKEQQCVIMAENRKSSIIIRMRDVVLFEKKVYLSECKTGNGKNYRGTMSKTKNGITCQKWSSTSPHRPRFSPATHPSEGLEENYCRNPDNDPQGPWCYTTDPEKRYDYCDILECEEECMHCSGENYDGKISKTMSGLECQAWDSQSPHAHGYIPSKFPNKNLKKNYCRNPDRELRPWCFTTDPNKRWELCDIPRCTTPPPSSGPTYQCLKGTGENYRGNVAVTVSGHTCQHWSAQTPHTHNRTPENFPCKNLDENYCRNPDGKRAPWCHTTNSQVRWEYCKIPSCDSSPVSTEQLAPTAPPELTPVVQDCYHGDGQSYRGTSSTTTTGKKCQSWSSMTPHRHQKTPENYPNAGLTMNYCRNPDADKGPWCFTTDPSVRWEYCNLKKCSGTEASVVAPPPVVLLPDVETPSEEDCMFGNGKGYRGKRATTVTGTPCQDWAAQEPHRHSIFTPETNPRAGLEKNYCRNPDGDVGGPWCYTTNPRKLYDYCDVPQCAAPSFDCGKPQVEPKKCPGRVVGGCVAHPHSWPWQVSLRTRFGMHFCGGTLISPEWVLTAAHCLEKSPRPSSYKVILGAHQEVNLEPHVQEIEVSRLFLEPTRKDIALLKLSSPAVITDKVIPACLPSPNYVVADRTECFITGWGETQGTFGAGLLKEAQLPVIENKVCNRYEFLNGRVQSTELCAGHLAGGTDSCQGDSGGPLVCFEKDKYILQGVTSWGLGCARPNKPGVYVRVSRFVTWIEGVMRNN
notes: also called Plg
B3: tPA-F-EGF-GST (finger and EGF domains of human tPA with C-terminal GST tag) (other, UniProt P00750 36-122, looked up)
chain: SYQVICRDEKTQMIYQQHQSWLRPVLRSNRVEYCWCNSGRAQCHSVPVKSCSEPRCFNGGTCQQALYFSDFVCQCPEGFAGKCCEID
notes: domain: F-EGF; also called F-EGF-tPA; not shown: vector residues and thrombin cleavage site; Schistosoma japonicum glutathion-S-transferase (GST) tag
B4: human islet amyloid polypeptide, full length (fl-hIAPP) (peptide)
peptide: KCNTATCATQRLANFLVHSSNNFGAILSSTNVGSNTY
B5: tPA EGF-GST (EGF domain of human tPA with C-terminal GST tag) (other, UniProt P00750 86-122, looked up)
chain: CSEPRCFNGGTCQQALYFSDFVCQCPEGFAGKCCEID
notes: domain: EGF; not shown: vector residues and thrombin cleavage site; Schistosoma japonicum glutathion-S-transferase (GST) tag
B6: recombinant tissue-type plasminogen activator (tPA) (enzyme, human, UniProt P00750 36-562, looked up)
chain: SYQVICRDEKTQMIYQQHQSWLRPVLRSNRVEYCWCNSGRAQCHSVPVKSCSEPRCFNGGTCQQALYFSDFVCQCPEGFAGKCCEIDTRATCYEDQGISYRGTWSTAESGAECTNWNSSALAQKPYSGRRPDAIRLGLGNHNYCRNPDRDSKPWCYVFKAGKYSSEFCSTPACSEGNSDCYFGNGSAYRGTHSLTESGASCLPWNSMILIGKVYTAQNPSAQALGLGKHNYCRNPDGDAKPWCHVLKNRRLTWEYCDVPSCSTCGLRQYSQPQFRIKGGLFADIASHPWQAAIFAKHRRSPGERFLCGGILISSCWILSAAHCFQERFPPHHLTVILGRTYRVVPGEEEQKFEVEKYIVHKEFDDDTYDNDIALLQLKSDSSRCAQESSVVRTVCLPPADLQLPDWTECELSGYGKHEALSPFYSERLKEAHVRLYPSSRCTSQHLLNRTVTDNMLCAGDTRSGGPQANLHDACQGDSGGPLVCLNDGRMTLVGIISWGLGCGQKDVPGVYTKVTNYLDWIRDNMRP
notes: Commercial full-length recombinant tPA; also called Alteplase; Actilyse
B7: tPA-F-GST (finger domain of human tPA with C-terminal GST tag) (other, UniProt P00750 36-85, looked up)
chain: SYQVICRDEKTQMIYQQHQSWLRPVLRSNRVEYCWCNSGRAQCHSVPVKS
notes: range 1-50; Expressed in 293T or BHK cells; Residues 1-50 count on mature tPA, not on the SwissProt precursor; also called tPA-F domain; F-tPA; not shown: (G)RP vector residues and thrombin cleavage site between domain and GST; Schistosoma japonicum glutathion-S-transferase (GST) tag

Legend:
[1] = target: B6; assay: ELISA, 25 µg/ml peptide immobilized
[2] = target: B3; assay: ELISA, 25 µg/ml peptide immobilized, excess εACA
[3] = target: T1, human factor XII (Hageman factor) (human, UniProt P00748 20-615); assay: ELISA, coated peptide, FXII overlaid
T1 construct: also called FXII; fXII
T1 sequence (looked up): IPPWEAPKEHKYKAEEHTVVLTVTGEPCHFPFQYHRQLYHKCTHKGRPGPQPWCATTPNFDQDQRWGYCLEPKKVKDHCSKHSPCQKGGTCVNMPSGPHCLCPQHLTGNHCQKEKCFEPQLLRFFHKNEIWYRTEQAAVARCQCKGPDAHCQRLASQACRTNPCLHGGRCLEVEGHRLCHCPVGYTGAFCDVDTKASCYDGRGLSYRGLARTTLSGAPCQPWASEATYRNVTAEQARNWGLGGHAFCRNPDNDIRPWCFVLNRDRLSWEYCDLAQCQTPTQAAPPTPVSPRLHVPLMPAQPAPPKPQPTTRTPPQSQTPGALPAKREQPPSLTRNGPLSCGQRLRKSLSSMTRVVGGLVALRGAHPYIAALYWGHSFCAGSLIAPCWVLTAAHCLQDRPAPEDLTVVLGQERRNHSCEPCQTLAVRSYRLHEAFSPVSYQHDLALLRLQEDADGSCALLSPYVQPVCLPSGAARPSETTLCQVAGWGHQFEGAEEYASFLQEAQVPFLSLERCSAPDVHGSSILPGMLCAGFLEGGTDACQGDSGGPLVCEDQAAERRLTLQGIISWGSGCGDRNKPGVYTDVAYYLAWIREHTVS
Description: Ten μg of the peptides that contain cross-β structure, as well as the negative control peptide mΔIAPP and phosphate-buffered saline (PBS), were spotted in duplicate.
Wells were coated in triplicate. […] Ten μg of the peptides that contain cross-β structure, as well as the negative control peptide MΔIAPP and phosphate-buffered saline (PBS), were spotted in duplicate onto methanol-activated nitrocellulose.

[4] = target: T2, human amyloid-β peptide Aβ(1-40) (human); assay: ELISA, Aβ coated, plasminogen overlaid
T2 construct: also called hAβ(1-40); amyloid-β(1-40)
T2 sequence (peptide, as listed by the source): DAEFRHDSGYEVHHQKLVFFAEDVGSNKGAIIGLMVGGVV

[5] = target: T2, human amyloid-β peptide Aβ(1-40); assay: ELISA, 25 µg/ml peptide immobilized, excess εACA, anti-GST detection
[6] = target: T3, tPA K1-GST (kringle 1 domain of human tPA with C-terminal GST tag) (human; Schistosoma japonicum, UniProt P00750 123-210); assay: pull-down with IAPP fibrils, Western blot
T3 construct: domain: K1; not shown: vector residues and thrombin cleavage site; Schistosoma japonicum glutathion-S-transferase (GST) tag
T3 sequence (looked up): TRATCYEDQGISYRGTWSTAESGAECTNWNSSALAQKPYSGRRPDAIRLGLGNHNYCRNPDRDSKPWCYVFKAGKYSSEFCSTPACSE
Description: (§1) Conditioned medium was used for pull-down assays using Aβ and IAPP fibrils, followed by Western blot analyses.

[7] = target: B3; assay: ELISA, 25 µg/ml peptide immobilized, excess εACA, anti-GST detection
[8] = target: B6; assay: ELISA on Exiqon plates
[9] = target: B6; assay: ELISA, 25 µg/ml peptide immobilized on Exiqon plates
[10] = target: T4, Fn F4-5-GST (finger domains 4-5 of human fibronectin with C-terminal GST tag) (human; Schistosoma japonicum, UniProt P02751 182-276); assay: ELISA, immobilized peptide
T4 construct: domain: fibronectin type I domains 4-5; Printed in places as Fn F4-S-GST (a misprint of F4-5); also called Fn F4-S-GST; fibronectin F4-5; not shown: (G)RP vector residues and thrombin cleavage site; Schistosoma japonicum glutathion-S-transferase (GST) tag
T4 sequence (P02751 182-276, tags left off): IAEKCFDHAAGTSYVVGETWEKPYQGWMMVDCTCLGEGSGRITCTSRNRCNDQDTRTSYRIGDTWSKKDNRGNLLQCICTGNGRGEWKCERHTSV

[11] = target: B4; assay: pull-down with IAPP fibrils, Western blot
Description: as §1

[12] = target: T2, human amyloid-β peptide Aβ(1-40); assay: pull-down with Aβ fibrils, Western blot
Description: “Control,” medium before the pull-down, “Aβ,” washed amyloid Aβ pellet, after the pull-down, “Sup,” medium after extraction with Aβ. […] MΔIAPP was coated as non-amyloid negative control (Panel E). […] The same sections were incubated with Congo red (Panels I, K, and M) to locate amyloid deposits. Panels N and O: Pull-down assay with insoluble Aβ fibrils and finger domains. […] “Control,” medium before the pull-down, “Aβ,” washed amyloid Aβ pellet, after the pull-down, “Sup,” medium after extraction with Aβ.
as §1

[13] = target: T2, human amyloid-β peptide Aβ(1-40); assay: ELISA on Exiqon plates
[14] = target: T2, human amyloid-β peptide Aβ(1-40); assay: ELISA, Aβ coated on plate, tPA overlaid
[15] = target: T5, advanced glycation end product-modified bovine serum albumin, glycated with glucose-6-phosphate (albumin-g6p) (bovine, UniProt P02769 25-607, glycated with glucose-6-phosphate (advanced glycation end products; 59 lysine and 23 arginine residues and the N-terminus are potential glycation sites)); assay: kD of tPA binding to coated albumin-AGE, quoted for the competitive ELISA
T5 construct: adopts cross-β structure; also called albumin-AGE; glycated albumin
T5 sequence (P02769 25-607 limits assumed): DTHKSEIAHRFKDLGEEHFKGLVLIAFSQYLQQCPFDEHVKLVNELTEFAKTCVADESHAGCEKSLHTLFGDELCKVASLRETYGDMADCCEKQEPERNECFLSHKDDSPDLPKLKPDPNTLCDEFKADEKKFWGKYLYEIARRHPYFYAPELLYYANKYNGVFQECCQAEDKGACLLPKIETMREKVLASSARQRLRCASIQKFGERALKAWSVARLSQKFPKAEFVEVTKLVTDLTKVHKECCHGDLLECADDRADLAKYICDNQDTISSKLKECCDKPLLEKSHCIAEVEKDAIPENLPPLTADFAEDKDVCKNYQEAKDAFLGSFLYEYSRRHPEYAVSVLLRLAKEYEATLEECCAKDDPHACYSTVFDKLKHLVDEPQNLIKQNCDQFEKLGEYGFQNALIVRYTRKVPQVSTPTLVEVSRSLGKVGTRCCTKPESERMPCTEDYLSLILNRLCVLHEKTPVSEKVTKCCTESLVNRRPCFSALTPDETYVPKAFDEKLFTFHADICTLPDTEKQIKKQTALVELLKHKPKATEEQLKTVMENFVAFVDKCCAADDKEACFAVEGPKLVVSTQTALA

[16] = target: T2, human amyloid-β peptide Aβ(1-40); assay: ELISA, 25 µg/ml peptide immobilized on Exiqon plates
[17] = target: T2, human amyloid-β peptide Aβ(1-40); assay: kD of tPA binding to coated hAβ(1-40), quoted for the competitive ELISA
[18] = target: T2, human amyloid-β peptide Aβ(1-40); assay: ELISA, coated ligand, anti-GST detection
Description: FIG. 13. […] “Control,” medium before the pull-down, “Aβ,” washed amyloid Aβ pellet, after the pull-down, “Sup,” medium after extraction with Aβ. […] MΔIAPP was coated as non-amyloid negative control (Panel E). […] The same sections were incubated with Congo red (Panels I, K, and M) to locate amyloid deposits. Panels N and O: Pull-down assay with insoluble Aβ fibrils and finger domains. […] “Control,” medium before the pull-down, “Aβ,” washed amyloid Aβ pellet, after the pull-down, “Sup,” medium after extraction with Aβ.

B1: no binding [1]; no binding [2]; no binding [3].

B2: no binding [4].

B3 showed a Kd [5] of 2 nM.

In the case of B4, the binding result [6] is reported as “no binding”, the Kd [7] is reported as 13 nM and the Kd [8] is reported as 6 nM. The Kd [9] was 2 nM and the binding result [10] was “binds”.

B5: no binding [11]; no binding [12].

B6 was tested, and the Kd [13] was 46 nM, the Kd [14] was about 7 nM and the Kd [15] was 1 nM. For the same binder, the Kd [16] was 2 nM and the Kd [17] was 50 nM.

B7: binds [18].
